In the Human Domainome abundance scans (Beltran et al. 2025):
± gives the uncertainty stated by the source.

B1: GA-binding protein alpha chain, residues 172 to 250; numbered along this chain, Q06546 (parent)
chain: GYRKEQERLGIPYDPIQWSTDQVLHWVVWVMKEFSMTDIDLTTLNISGRELCSLNQEDFFQRVPRGEILWSHLELLRKY

Variants of: B1
Test: abundance fitness (aPCA) (normalised: wild type 0, dead -1); higher = more abundant; growth selection in yeast, the domain comes from the species named
Settings: Homo sapiens

Variant | abundance fitness
GYRKEQERLGIPYDPIQVSTDQVLHWVVWVMKEFSMTDIDLTTLNISGRELCSLNQEDFFQRVPRGEILWSHLELLRKY | -0.927 ± 0.081
GYRKEQERLGIPYDPIQYSTDQVLHWVVWVMKEFSMTDIDLTTLNISGRELCSLNQEDFFQRVPRGEILWSHLELLRKY | -0.669 ± 0.14
GYRKEQERLGIPYDPIQWATDQVLHWVVWVMKEFSMTDIDLTTLNISGRELCSLNQEDFFQRVPRGEILWSHLELLRKY | -0.664 ± 0.062
GYRKEQERLGIPYDPIQWTTDQVLHWVVWVMKEFSMTDIDLTTLNISGRELCSLNQEDFFQRVPRGEILWSHLELLRKY | 0.05 ± 0.073
GYRKEQERLGIPYDPIQWDTDQVLHWVVWVMKEFSMTDIDLTTLNISGRELCSLNQEDFFQRVPRGEILWSHLELLRKY | -0.048 ± 0.072
GYRKEQERLGIPYDPIQWMTDQVLHWVVWVMKEFSMTDIDLTTLNISGRELCSLNQEDFFQRVPRGEILWSHLELLRKY | -0.836 ± 0.14
GYRKEQERLGIPYDPIQWPTDQVLHWVVWVMKEFSMTDIDLTTLNISGRELCSLNQEDFFQRVPRGEILWSHLELLRKY | -0.82 ± 0.1
GYRKEQERLGIPYDPIQWGTDQVLHWVVWVMKEFSMTDIDLTTLNISGRELCSLNQEDFFQRVPRGEILWSHLELLRKY | -0.34 ± 0.035
GYRKEQERLGIPYDPIQWQTDQVLHWVVWVMKEFSMTDIDLTTLNISGRELCSLNQEDFFQRVPRGEILWSHLELLRKY | -0.225 ± 0.053
GYRKEQERLGIPYDPIQWWTDQVLHWVVWVMKEFSMTDIDLTTLNISGRELCSLNQEDFFQRVPRGEILWSHLELLRKY | -0.927 ± 0.11
GYRKEQERLGIPYDPIQWETDQVLHWVVWVMKEFSMTDIDLTTLNISGRELCSLNQEDFFQRVPRGEILWSHLELLRKY | -0.311 ± 0.057
GYRKEQERLGIPYDPIQWLTDQVLHWVVWVMKEFSMTDIDLTTLNISGRELCSLNQEDFFQRVPRGEILWSHLELLRKY | -0.864 ± 0.094
GYRKEQERLGIPYDPIQWFTDQVLHWVVWVMKEFSMTDIDLTTLNISGRELCSLNQEDFFQRVPRGEILWSHLELLRKY | -0.849 ± 0.12
GYRKEQERLGIPYDPIQWHTDQVLHWVVWVMKEFSMTDIDLTTLNISGRELCSLNQEDFFQRVPRGEILWSHLELLRKY | -0.096 ± 0.17
GYRKEQERLGIPYDPIQWCTDQVLHWVVWVMKEFSMTDIDLTTLNISGRELCSLNQEDFFQRVPRGEILWSHLELLRKY | -0.487 ± 0.065
GYRKEQERLGIPYDPIQWRTDQVLHWVVWVMKEFSMTDIDLTTLNISGRELCSLNQEDFFQRVPRGEILWSHLELLRKY | -0.14 ± 0.029
GYRKEQERLGIPYDPIQWNTDQVLHWVVWVMKEFSMTDIDLTTLNISGRELCSLNQEDFFQRVPRGEILWSHLELLRKY | -0.053 ± 0.11
GYRKEQERLGIPYDPIQWKTDQVLHWVVWVMKEFSMTDIDLTTLNISGRELCSLNQEDFFQRVPRGEILWSHLELLRKY | -0.281 ± 0.077

Variant | abundance fitness
GYRKEQERLGIPYDPIQWVTDQVLHWVVWVMKEFSMTDIDLTTLNISGRELCSLNQEDFFQRVPRGEILWSHLELLRKY | -0.996 ± 0.1
GYRKEQERLGIPYDPIQWYTDQVLHWVVWVMKEFSMTDIDLTTLNISGRELCSLNQEDFFQRVPRGEILWSHLELLRKY | -0.65 ± 0.14
GYRKEQERLGIPYDPIQWSMDQVLHWVVWVMKEFSMTDIDLTTLNISGRELCSLNQEDFFQRVPRGEILWSHLELLRKY | -0.15 ± 0.057
GYRKEQERLGIPYDPIQWSHDQVLHWVVWVMKEFSMTDIDLTTLNISGRELCSLNQEDFFQRVPRGEILWSHLELLRKY | -0.047 ± 0.11
GYRKEQERLGIPYDPIQWSRDQVLHWVVWVMKEFSMTDIDLTTLNISGRELCSLNQEDFFQRVPRGEILWSHLELLRKY | -0.022 ± 0.032
GYRKEQERLGIPYDPIQWSADQVLHWVVWVMKEFSMTDIDLTTLNISGRELCSLNQEDFFQRVPRGEILWSHLELLRKY | 0.024 ± 0.043
GYRKEQERLGIPYDPIQWSGDQVLHWVVWVMKEFSMTDIDLTTLNISGRELCSLNQEDFFQRVPRGEILWSHLELLRKY | -0.069 ± 0.032
GYRKEQERLGIPYDPIQWSKDQVLHWVVWVMKEFSMTDIDLTTLNISGRELCSLNQEDFFQRVPRGEILWSHLELLRKY | 0.043 ± 0.069
GYRKEQERLGIPYDPIQWSLDQVLHWVVWVMKEFSMTDIDLTTLNISGRELCSLNQEDFFQRVPRGEILWSHLELLRKY | -0.318 ± 0.043
GYRKEQERLGIPYDPIQWSFDQVLHWVVWVMKEFSMTDIDLTTLNISGRELCSLNQEDFFQRVPRGEILWSHLELLRKY | -0.716 ± 0.19
GYRKEQERLGIPYDPIQWSCDQVLHWVVWVMKEFSMTDIDLTTLNISGRELCSLNQEDFFQRVPRGEILWSHLELLRKY | -0.118 ± 0.069
GYRKEQERLGIPYDPIQWSQDQVLHWVVWVMKEFSMTDIDLTTLNISGRELCSLNQEDFFQRVPRGEILWSHLELLRKY | -0.043 ± 0.063
GYRKEQERLGIPYDPIQWSIDQVLHWVVWVMKEFSMTDIDLTTLNISGRELCSLNQEDFFQRVPRGEILWSHLELLRKY | -0.101 ± 0.12
GYRKEQERLGIPYDPIQWSEDQVLHWVVWVMKEFSMTDIDLTTLNISGRELCSLNQEDFFQRVPRGEILWSHLELLRKY | 0.039 ± 0.053
GYRKEQERLGIPYDPIQWSNDQVLHWVVWVMKEFSMTDIDLTTLNISGRELCSLNQEDFFQRVPRGEILWSHLELLRKY | 0.103 ± 0.099
GYRKEQERLGIPYDPIQWSPDQVLHWVVWVMKEFSMTDIDLTTLNISGRELCSLNQEDFFQRVPRGEILWSHLELLRKY | -0.013 ± 0.053
GYRKEQERLGIPYDPIQWSDDQVLHWVVWVMKEFSMTDIDLTTLNISGRELCSLNQEDFFQRVPRGEILWSHLELLRKY | -0.101 ± 0.086
